The values that follow come from publication PMC12024694, “RNA Binding to CCRRM of PABPN1 Induces Conformation Change”.

What is called Kd is a measure of binding affinity in units of concentration.

In series [1] the target is T1, PABPN1 CCRRM fragment (coiled coil + RRM) (UniProt Q86U42 114-254).
T1 sequence: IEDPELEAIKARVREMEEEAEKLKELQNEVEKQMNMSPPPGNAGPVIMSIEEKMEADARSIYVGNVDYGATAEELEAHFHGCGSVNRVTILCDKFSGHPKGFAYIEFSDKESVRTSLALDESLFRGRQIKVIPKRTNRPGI
Kind of series: BLI; kon 3.589e-5 (so in the source), koff 1.34e-3 s-1; room temperature; EMSA and SHAPE: 10 mM Tris-HCl pH 8.0, 25 mM KCl, 10 mM NaCl, 1 mM MgCl2, 10% glycerol, 0.5 mM DTT, 25 C, 20 min (1M7 step at 35 C); BLI: room temperature, 0.5. Particulars: protein: recombinant; tags: Trx and His (Ni-NTA) fusion, pET-MG vector; label: 5' biotin. (In general: In BLI a coated tip is dipped into the sample, and binding shifts an interference pattern.)

The target in series [2] is T1, PABPN1 CCRRM fragment (coiled coil + …). Briefly: BLI; kon 4.24e-5 (so in the source), koff 2.031e-3 s-1; text ranks A18 intermediate, inconsistent with values; EMSA and SHAPE: 10 mM Tris-HCl pH 8.0, 25 mM KCl, 10 mM NaCl, 1 mM MgCl2, 10% glycerol, 0.5 mM DTT, 25 C, 20 min (1M7 step at 35 C); BLI: room temperature, 0.5. Conditions: protein: recombinant; tags: Trx and His (Ni-NTA) fusion, pET-MG vector; label: 5' biotin.

Series [3] has the same target. Kind of series: BLI; kon 4.1e-5 (so in the source), koff 1.71e-3 s-1; text ranks A12 lowest affinity, inconsistent with values; EMSA and SHAPE: 10 mM Tris-HCl pH 8.0, 25 mM KCl, 10 mM NaCl, 1 mM MgCl2, 10% glycerol, 0.5 mM DTT, 25 C, 20 min (1M7 step at 35 C); BLI: room temperature, 0.5. Conditions: protein: recombinant; tags: Trx and His (Ni-NTA) fusion, pET-MG vector; label: 5' biotin.

Series [4] shares this target. Kind of series: SHAPE footprinting (1M7); A-rich protected, CU-rich partly protected; CA-rich and GU-rich stable, AU-rich more reactive; text elsewhere calls GU-rich moderate affinity; EMSA and SHAPE: 10 mM Tris-HCl pH 8.0, 25 mM KCl, 10 mM NaCl, 1 mM MgCl2, 10% glycerol, 0.5 mM DTT, 25 C, 20 min (1M7 step at 35 C); BLI: room temperature, 0.5. Particulars: protein: recombinant; tags: Trx and His (Ni-NTA) fusion, pET-MG vector.

For series [5] the target is unchanged. Kind of series: EMSA; 50 uM RNA; protein:RNA ratio 0 to 5; EMSA and SHAPE: 10 mM Tris-HCl pH 8.0, 25 mM KCl, 10 mM NaCl, 1 mM MgCl2, 10% glycerol, 0.5 mM DTT, 25 C, 20 min (1M7 step at 35 C); BLI: room temperature, 0.5. Conditions: protein: recombinant; tags: Trx and His (Ni-NTA) fusion, pET-MG vector.
Series [6] shares this target. Briefly: EMSA; 40 uM RNA; protein:RNA ratio 0 to 10; EMSA and SHAPE: 10 mM Tris-HCl pH 8.0, 25 mM KCl, 10 mM NaCl, 1 mM MgCl2, 10% glycerol, 0.5 mM DTT, 25 C, 20 min (1M7 step at 35 C); BLI: room temperature, 0.5. Conditions: protein: recombinant; tags: Trx and His (Ni-NTA) fusion, pET-MG vector.

B1: A6 (ssRNA)
RNA: AAAAAA
With B1, the Kd in series [1] came out at 3.38 nM.

B2: A18 (ssRNA)
RNA: AAAAAAAAAAAAAAAAAA
As to B2, in series [2], the Kd came to 4.79 nM.

B3: A12 (ssRNA)
RNA: AAAAAAAAAAAA
Consider B3, for which the Kd in series [3] was 4.17 nM.

B4: RE_A-rich RNA (structured_RNA)
RNA: CCUUCGGGCCAAAUUUAUUUAUUUAUUUAUUUAGCUGACGAUAAAAAAAAAAAAAAAAAACCACACACACAGGAAUCGACUCUGUUUGUUUGUGUUUGUUUGUACUGAAUUGGCACUUUUCCCCUUUUCCCUUUCUGGACUGGCAUCGAUCCGGUUCGCCGGAUCCAAAUCGGGCUUCGGUCCGGUUC
Take B4: the binding result in series [4] was “binds”.

B5: A-rich RNA (ssRNA)
RNA: UAAUACGACUCACUAUAGGGUGGUCAGUCGAGUGGAAAAAAAAAAAAAAAAAAGGGCGGCAUGGUCCCAGCCUCCU
As to B5, the binding result in series [5] is listed as “binds”.

B6: U-rich RNA (ssRNA)
RNA: UAAUACGACUCACUAUAGGGUGGUCAGUCGAGUGGUUUUUUUUUUUUUUUUUUGGGCGGCAUGGUCCCAGCCUCCU
With B6, in series [6], the binding result was “no binding”.
